Test: High throughput cellobiose assay: fold improvement in cellobiase activity of CelA variants over a control enzyme (Tables 2A-2D, 3, 5, 6, 7)
Type: biochemical
Conditions: 3.3 g/l cellobiose, 65° C. and pH 5 (incubation overnight); relative to Control #5, Variant No. 366 (SEQ ID NO: 9)

Molecule	Fold Improvement over Control Variant
408 (protein, truncated; signal peptide F-10T) SAAITQEGAAPAPMLHPEKWPRPATQRLIDPAVEKRVDALLKQLSVEEKVGQVIQGDIGTITPEDLRKYPLGSILAGGDSGPNGDDRAPPKEWLDLADAFYRVSLEKRPGHTPIPVLFGIDAVHGHNNIGSATIFPHNIALGMTRDTELLRRIGEVTAEEMAATGIDWTFAPALSVPRDDRWGRTYEGFSEDPEIVASYSAAIVEGFQGKYGSKDFMAPGRAVACGKHFLADGGTDQGRDQGDARISEDELIRIHNAGYPPAIDAGVLTVMASFSSWQGIKHHGHKQLLTDVLKGQMGFNGFIVGDWNAHDQVPGCTKFNCPTSLIAGLDMYMAADSWKQLYENTLAQVKDGTIPMARLDDAVRRILRVKVLAGLFEKPAPKDRPGLPGLETLGSPEHRAVGREAVRKSLVLLKNDKGTLPLSPKARVLVAGDGADNIGKQSGGWTISWQGTGNRNDEFPGATSILGGIRDAVADAGGSVEFDVAGQYKTKPDVAIVVFGEEPYAEFRGDVETLEYQPDQKQDLTLLKKLKDQGIPVVAVFLSGRPMWVNPELNASDAFVAAWLPGTEGGGVADVLFTDKAGKVQYDFAGKLSYSWPRTAAQTTVNRGDADYNPLFAYGYGLTYKDKSKVGTLPEESGVPAEARQNAGIYFRAGALRLPGRFL	+++ (+++ = 2.1 to 3.0 fold improvement over control Variant No. 366)
411 (protein, truncated; signal peptide F-10T) SAAITQEGAAPAAMLHPEKWPRPATQRLIDPAVEKRVDALLKQLSVEEKVGQVIQGDIGTITPEDLRKYPLGSILAGGDSGPNGDDRAPPKEWLDLADAFYRVSLEKRPGHTPIPVLFGIDAVHGHNNIGSATIFPHNIALGMTRDPELLRRIGEVTAEEMAATGIDWTFAPALSVPRDDRWGRTYEGFSEDPEIVASYSAAIVEGFQGKYGSKDFMAPGRAVACAKHFLADGGTDQGRDQGDARISEDELIRIHNAGYPPAIDAGVLTVMASFSSWQGIKHHGHKQLLTDVLKGQMGFNGFIVGDWNAHDQVPGCTKFNCPTSLIAGLDMYMAADSWKQLYENTLAQVKDGTIPMARLDDAVRRILRVKVSAGLFEKPAPKDRPGLPGLETLGSPEHRAVGREAVRKSLVLLKNDKGTLPLSPKARVLVAGDGADNIGKQSGGWTISWQGTGNRNDEFPGATSILGGIRDAVADAGGSVEFDVAGQYKTKPDVAIVVFGEEPYAEFRGDVETLEYQPDQKQDLTLLKKLKDQGIPVVAVFLSGRPMWVNPELNASDAFVAAWLPGTEGGGVADVLFTDKAGKVQHDFAGKLSYSWPRTAAQTTVNRGDADYNPLFAYGYGLTYKDKSKVGTLPEESGVPAEARQNAGIYFRAGALRLPGRFL	++ (++ = 1.1 to 2.0 fold improvement over control Variant No. 366)
413 (protein, truncated; signal peptide F-10T) SARITQEGAAPAPMLHPEKWPRPATQRLIDPAVEKRVDALLKQLSVEEKVGQVIQGDIGTITPEDLRKYPLGSILAGGDSGPNGDDRAPPKEWLDLADAFYRVSLEKRPGHTPIPVLFGIDAVHGHNNIGSATIFPHNIALGMTRDTELLRRIGEVTAEEMAATGIDWTFAPALSVPRDDRWGRTYEGFSEDPEIVASYSAAIVEGFQGKYGSKDFMAPGRAVACAKHFLADGGTDQGRDQGDARISEDELIRIHNAGYPPAIDAGVLTVMASFSSWQGIKHHGHKQLLTDVLKGQMGFNGFIVGDWNAHDQVPGCTKFNCPTSLIAGLDMYMAADSWKQLYENTLAQVKDGTIPMARLDDAVRRILRVKVLAGLFEKPAPKDRPGLPGLETLGSPEHRAVGREAVRKSLVLLKNDKGTLPLSPKARVLVAGDGADNIGKQSGGWTISWQGTGNRNDEFPGATSILGGIRDAVADAGGSVEFDVAGQYKTKPDVAIVVFGENPYAEFRGDVETLEYQPDQKQDLTLLKKLKDQGIPVVAVFLSGRPMWVNPELNASDAFVAAWLPGTEGGGVADVLFTDKAGKVQYDFAGKLSYSWPRTAAQTTVNRGDADYNPLFAYGYGLTYKDKSKVGTLPEESGVPAEARQNAGIYFRAGALRLPGRFL	+++ (+++ = 2.1 to 3.0 fold improvement over control Variant No. 366)
412 (protein, truncated; signal peptide F-10T) SAAITQEGAAPAAMLHPEKWPRPATQRLIDPAVEKRVDALLKQLSVEEKVGQVIQGDIGTITPEDLRKYPLGSILAGGDSGPNGDDRAPPKEWLDLADAFYRVSLEKRPGHTPIPVLFGIDAVHGHNNIGSATIFPHNIALGMTRDPELLRRIGEVTAEEMAATGIDWTFAPALSVPRDDRWGRTYEGFSEDPEIVASYSAAIVEGFQGKYGSKDFMAPGRAVACAKHFLADGGTDQGRDQGDARISEDELIRIHNAGYPPAIDAGVLTVMASFSSWQGIKHHGHKQLLTDVLKGQMGFNGFIVGDWNAHDQVPGCTKFNCPTSLIAGLDMYMAADSWKQLYENTLAQVKDGTIPMARLDDAVRRILRVKVLAGLFEKPAPKDRPGLPGLETLGSPEHRAVGREAVRKSLVLLKNDKGTLPLSPKARVLVAGDGADNIGKQSGGWTISWQGTGNRNDEFPGATSILGGIRDAVADAGGSVEFDVAGQYKTKPDVAIVVFGENPYAEFQGDVETLEYQPDQKQDLTLLKKLKDQGIPVVAVFLSGRPMWVNPELNASDAFVAAWLPGTEGGGVADVLFTDKAGKVQHDFAGKLSYSWPRTAAQTTVNRGDADYNPLFAYGYGLTYKDKSKVGTLPEESGVPAEARQNAGIYFRAGALRLPGRFL	+++ (+++ = 2.1 to 3.0 fold improvement over control Variant No. 366)
410 (protein, truncated; signal peptide F-10T) SAAITQEGAAPAAMLHPEKWPRPATQRLIDPAVEKRVDALLKQLSVEEKVGQVIQGDIGTITPEDLRKYPLGSILAGGDSGPNGDDRAPPKEWLDLADAFYRVSLEKRPGHTPIPVLFGIDAVHGHNNIGSATIFPHNIALGMTRDPELLRRIGEVTAEEMAATGIDWTFAPALSVPRDDRWGRTYEGFSEDPEIVASYSAAIVEGFQGKYGSKDFMAPGRAVACAKHFLADGGTDQGRDQGDARISEDELIRIHNAGYPPAIDAGVLTVMASFSSWQGIKHHGHKQLLTDVLKGQMGFNGFIVGDWNAHDQVPGCTKFNCPTSLIAGLDMYMAADSWKQLYENTLAQVKDGTIPMARLDDAVRRILRVKVLAGLFEKPAPKDRPGLPGLETLGSPEHRAVGREAVRKSLVLLKNDKGTLPLSPKARVLVAGDGADNIGKQSGGWTISWQGTGNRNDEFPGATSILGGIRDAVADAGGSVEFDVAGQYKTKPDVAIVVFGENPYAEFRGDVETLEYQPDQKQDLSLLKKLKDQGIPVVAVFLSGRPMWVNPELNASDAFVAAWLPGTEGGGVADVLFTDKAGKVQHDFAGKLSYSWPRTAAQTTVNRGDADYNPLFAYGYGLTYKDKSKVGTLPEESGVPAEARQNAGIYFRAGALRLPGRFL	+++ (+++ = 2.1 to 3.0 fold improvement over control Variant No. 366)
415 (protein, truncated; signal peptide F-10T) SAAITQEGAAPAPMLHPEKWPRPATQRLIDPAVEKRVDALLKQLSVEEKVGQVIQGDIGTITPEDLRKYPLGSILAGGDSGPNGDDRAPPKEWLDLADAFYRVSLEKRPGHTPIPVLFGIDAVHGHNHIGSATIFPHNIALGMTRDPELLRRIGEVTAEEMAATGIDWTFAPALSVPRDDRWGRTYEGFSEDPEIVASYSAAIVEGFQGKYGSKDFMAPGRAVACAKHFLADGGTDQGRDQGDARISEDELIRIHNAGYPPAIDAGVLTVMASFSSWQGIKHHGHKQLLTDVLKGQMGFNGFIVGDWNAHDQVPGCTKFNCPTSLIAGLDMYMAADSWKQLYENTLAQVKDGTIPMARLDDAVRRILRVKVLAGLFEKPAPKDRPGLPGLETLGSPEHRAVGREAVRKSLVLLKNDKGTLPLSPKARVLVAGDGADNIGKQSGGWTISWQGTGNRNDEFPGATSILGGIRDAVADAGGSVEFDVAGQYKTKPDVAIVVFGENPYAEFQGDVETLEYQPDQKQDLTLLKKLKDQGIPVVAVFLSGRPMWVNPELNASDAFVAAWLPGTEGGGVADVLFTDKAGKVQHDFAGKLSYSWPRTAAQTTVNRGDADYNPLFAYGYGLTYKDKSKVGTLPEESGVPAEARQNAGIYFRAGALRLPGRFL	++ (++ = 1.1 to 2.0 fold improvement over control Variant No. 366)
414 (protein, truncated; signal peptide F-10T) SARITQEGAAPAAMLHPEKWPRPATQRLIDPAVEKRVDALLKQLSVEEKVGQVIQGDIGTITPEDLRKYPLGSILAGGDSGPNGDDRAPPKEWLDLADAFYRVSLEKRPGHTPIPVLFGIDAVHGHNNIGSATIFPHNIALGMTRDPELLRRIGEVTAEEMAATGIDWTFAPALSVVRDDRWGRTYEGFSEDPEIVASYSAAYVEGFQGKYGSKDFMAPGRAVACAKHFLADGGTDQGRDQGDARISEDELIRIHNAGYPPAIDAGVLTVMASFSSWQGIKHHGHKQLLTDVLKGQMGFNGFIVGDWNAHDQVPGCTKFNCPTSLIAGLDMYMAADSWKQLYENTLAQVKDGTIPMARLDDAVRRILRVKVLAGLFEKPAPKDRPGLPGLETLGSPEHRTVGREAVRKSLVLLKNDKGTLPLSPKARVLVAGDGADNIGKQSGGWTISWQGTGNRNDEFPGATSILGGIRDAVADAGGSVEFDVAGQYKTKPDVAIVVFGENPYAEFRGDVETLEYQPDQKQDLSLLKKLKDQGIPVVAVFLSGRPMWVNPELNASDAFVAAWLPGTEGGGVADVLFTDKAGKVQHDFAGKLSYSWPRTAAQTTVNRGDADYNPLFAYGYGLTYKDKSKVGTLPEESGVPAEARQNAGIYFRAGALRLPGRFL	++ (++ = 1.1 to 2.0 fold improvement over control Variant No. 366)
409 (protein, truncated; signal peptide F-10T) SAAITQEGAAPAAMLHPEKWPRPATQRLIDPAVEKRVDALLKQLSVEEKVGQVIQGDIGTITPEDLRKYPLGSILAGGDSGPNGDDRAPPKEWLDLADAFYRVSLEKRDGHTPIPVLFGIDAVHGHNNIGSATIFPHNIALGMTRDTELLRRIGEVTAEEMAATGIDWTFAPALSVPRDDRWGRTYEGFSEDPEIVASYSAAIVEGFQGKYGSKDFMAPGRAVACAKHFLADGGTDQGRDQGDARISEDELIRIHNAGYPPAIDAGVLTVMASFSSWQGIKHHGHKQLLTDVLKGQMGFNGFIVGDWNAHDQVPGCTKFNCPTSLIAGLDMYMAADSWKQLYENTLAQVKDGTIPMARLDDAVRRILRVKVLAGLFEKPAPKDRPGLPGLETLGSPEHRAVGREAVRKSLVLLKNDKGTLPLSPKARVLVAGDGADNIGKQSGGWTISWQGTGNRNDEFPGATSILGGIRDAVADAGGSVEFDVAGQYKTKPDVAIVVFGEEPYAEFRGDVETLEYQPDQKQDLSLLKKLKDQGIPVVAVFLSGRPMWVNPELNASDAFVAAWLPGTEGGGVADVLFTDKAGKVQHDFAGKLSYSWPRTAAQTTVNRGDADYNPLFAYGYGLTYKDKSKVGTLPEESGVPAEARQNAGIYFRAGALRLPGRFL	+++ (+++ = 2.1 to 3.0 fold improvement over control Variant No. 366)

Reference: patent US8357523B2, “Beta-glucosidase variant enzymes and related polynucleotides” (Codexis, Inc., priority 2009, dated 2013)
